Experimental data as given in US8987424B2, “CA6 antigen-specific cytotoxic conjugate and methods of using the same” (ImmunoGen, Inc., priority 2003, dated 2015).

B1: DS6-DM1: muDS6 antibody modified with SPP and conjugated to the maytansinoid DM1 (conjugate)
VH: QAYLQQSGAELVRSGASVKMSCKASGYTFTSYNMHWVKQTPGQGLEWIGYIYPGNGATNYNQKFKGKATLTADPSSSTAYMQISSLTSEDSAVYFCARGDSVPFAYWGQGTLVTVSA
VL: QIVLTQSPAIMSASPGEKVTITCSAHSSVSFMHWFQQKPGTSPKLWIYSTSSLASGVPARFGGSGSGTSYSLTISRMEAEDAATYYCQQRSSFPLTFGAGTKLELKR
B2: DS6: murine anti-CA6 monoclonal antibody DS6 (ATCC deposit number PTA-4449) (antibody, V domains shown)
VH: B1 VH
VL: B1 VL

Key:
Caov-3 cells [1] = experiment: Flow cytometry binding assay; set-up: species or system human
Experimental: Flow cytometric analysis was used to localize the DS6 epitope, CA6, to the cell surface. Human cell lines were obtained from the American Type Culture Collection (ATCC) with the exception of OVCAR5 (Kearse et al., Int. J. Cancer 88(6):866-872 (2000)), OVCAR8 and IGROV1 cells (M. Seiden, Massachusetts General Hospital). All cells were grown in RPMI 1640 supplemented with 4 mM L-glutamine, 50 U/ml penicillin, 50 μg/ml streptomycin (Cambrex Bio Science, Rockland, Me.) and 10% v/v fetal bovine serum (Atlas Biologicals, Fort Collins, Colo.), referred hereafter as culture media. Cells were maintained in a 37° C., 5% CO2 humidified incubator.
Cells ([…]) were incubated, on ice for 3-4 h, with serially diluted concentrations of the DS6 antibody prepared in FACS buffer (2% goat serum, RPMI) into 96-well plates. […] After two washes, the cells were fixed with 1% formaldehyde and analyzed on a flow cytometer.
The muDS6 antibody (8 mg/ml) was modified using 8-fold molar excess of N-succinimidyl-4-(2-pyridyldithio) pentanoate (SPP) to introduce dithiopyridyl groups. […] The degree of modification was determined by measuring the absorbance of the antibody at 280 nm and the DTT released 2-mercaptopyridine (Spy) at 280 and 343 nm. […] The number of DM1 molecules linked per molecule of muDS6 was determined by measuring the absorbance at both 252 nm and 280 nm of the filtered material. […]

HPAC cells = experiment: MTT cell viability assay; type: cell-based, human; conditions: highest conjugate concentration (32 nM)
Experimental: (§1) In the MTT assay, cells were seeded in 96-well plates at a density of 1000-5000 cells/well. The cells were plated with serial dilutions of either naked muDS6 or muDS6-DM1 immunoconjugate in 200 μl of culture media. The samples were run in triplicate. The cells and antibody/conjugate mixtures were then incubated for 2-7 d, at which time cell viability was assessed by an MTT ([3(4,5-dimethylthiazol-2-yl)-2,5-diphenyl tetrazolium bromide)] assay. MTT (50 μg/well) was added to the culture supernatant and allowed to incubate for 3-4 h at 37° C. The media was removed and the MTT formazan was solubilized in DMSO (175 μl/well). The absorbance at 540-545 nm was measured. […] The wells with the highest concentrations of conjugate contained no viable cells as compared to naked antibody which had no effect (FIGS. 21 and 24).

BT-20 cells = experiment: MTT cell viability assay; type: cell-based, human; conditions: highest conjugate concentration (32 nM)
Experimental: as §1

OVCAR5 cells = experiment: MTT cell viability assay; type: cell-based, human; conditions: highest conjugate concentration (32 nM)
Experimental: as §1

Caov-3 cells [2] = experiment: Indirect cell viability assay with anti-mouse IgG (H+L) DM1 conjugate; type: cell-based, human; conditions: without secondary conjugate
Caov-3 cells [3] = experiment: MTT cell viability assay; type: cell-based, human
Experimental: as §1

| Molecule | effect of conjugation on binding affinity (Caov-3 cells [1]; Caov-3 cells, versus unmodified muDS6) | cells still viable (HPAC cells) | cells still viable (BT-20 cells) | cells still viable (OVCAR5 cells) | activity of naked antibody in cell cultures (Caov-3 cells [2]) | MMF (average maximum relative mean fluorescence) (Caov-3 cells [1]; Caov-3) | effect of naked antibody on cell viability (Caov-3 cells [3]) |
| --- | --- | --- | --- | --- | --- | --- | --- |
| B1 | only a slight loss of affinity | over 50% | over 50% | over 50% | – | – | – |
| B2 | – | – | – | – | no proliferative or growth inhibitive activity | 465.20 | no effect |
